# Data: US20230048960A1 (University of Washington, published 2023)
# Square brackets hold non-standard residues; d marks the D form. Nle = CCCC[C@H](N)C(=O)O
# B1: AP530m (peptide)
# peptide: Ac-RGE[dC]N[dY]F[dW]MNEYYGW[dT]M[dN]M[dR]MGK-NH2
# SMILES: CSCC[C@H](NC(=O)[C@@H](CCCNC(=N)N)NC(=O)[C@H](CCSC)NC(=O)[C@@H](CC(N)=O)NC(=O)[C@H](CCSC)NC(=O)[C@H](NC(=O)[C@H](Cc1c[nH]c2ccccc12)NC(=O)CNC(=O)[C@H](Cc1ccc(O)cc1)NC(=O)[C@H](Cc1ccc(O)cc1)NC(=O)[C@H](CCC(=O)O)NC(=O)[C@H](CC(N)=O)NC(=O)[C@H](CCSC)NC(=O)[C@@H](Cc1c[nH]c2ccccc12)NC(=O)[C@H](Cc1ccccc1)NC(=O)[C@@H](Cc1ccc(O)cc1)NC(=O)[C@H](CC(N)=O)NC(=O)[C@@H](CS)NC(=O)[C@H](CCC(=O)O)NC(=O)CNC(=O)[C@H](CCCNC(=N)N)NC(C)=O)[C@H](C)O)C(=O)NCC(=O)N[C@@H](CCCCN)C(N)=O
# B2: AP531m (peptide)
# peptide: Ac-RGE[dC]N[dY]F[dW]MNEYYGW[dT]M[dN]M[dR][Nle]GK-NH2
# SMILES: CCCC[C@H](NC(=O)[C@@H](CCCNC(=N)N)NC(=O)[C@H](CCSC)NC(=O)[C@@H](CC(N)=O)NC(=O)[C@H](CCSC)NC(=O)[C@H](NC(=O)[C@H](Cc1c[nH]c2ccccc12)NC(=O)CNC(=O)[C@H](Cc1ccc(O)cc1)NC(=O)[C@H](Cc1ccc(O)cc1)NC(=O)[C@H](CCC(=O)O)NC(=O)[C@H](CC(N)=O)NC(=O)[C@H](CCSC)NC(=O)[C@@H](Cc1c[nH]c2ccccc12)NC(=O)[C@H](Cc1ccccc1)NC(=O)[C@@H](Cc1ccc(O)cc1)NC(=O)[C@H](CC(N)=O)NC(=O)[C@@H](CS)NC(=O)[C@H](CCC(=O)O)NC(=O)CNC(=O)[C@H](CCCNC(=N)N)NC(C)=O)[C@H](C)O)C(=O)NCC(=O)N[C@@H](CCCCN)C(N)=O
# Molecular target: Aβ42 (UniProt P05067 672-713)
# Sequence (P05067 672-713 limits assumed): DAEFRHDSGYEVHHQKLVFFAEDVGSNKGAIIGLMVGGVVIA
# Test: cell-based or functional assay
"% inhibition of fibril formation (ThT), AP:Aβ42 1:1","% inhibition of fibril formation (ThT), AP:Aβ42 1:10","% inhibition of fibril formation (ThT), AP:Aβ42 1:100",Binder
78.2%,31.6%,0%,B1
100%,88.6%,62.4%,Ac-[dR]G[dE]M[dN]L[dS]W[dM][dN][dE][dY][dS]G[dW]T[dM]N[dC]K[dM]G[dR]-NH2 (also: homodimer: D-Cys19 disulfide-bonded to D-Cys19 of other copy) [AP526d]
100%,100%,72.2%,Ac-RGN[dW]N[dE]S[dK]MNEYSGW[dM]L[dM]C[dT]MGR-NH2 (also: disulfide-linked homodimer via Cys19) [AP500d]
37.2%,9.1%,0%,B2
92.6%,78.6%,38.5%,Ac-RGE[dC]N[dY]F[dW]MNEYYGW[dT]M[dN]M[dR][Nle]GK-NH2 (also: disulfide-linked homodimer via Cys4) [AP531d]
